From the nanobody polyreactivity screen of Harvey et al. (2022)

Assay: yeast display, Sf9 membrane polyspecificity reagent, FACS + sequencing; frameworks hold sequencing errors
Summary of the method: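 A nanobody's polyreactivity label depends on the gate it was sorted from. Yeast display cells were stained with 10% biotinylated, detergent-solubilized Sf9 membrane reagent for 1 hour at 4 °C, enriched on streptavidin microbeads and sorted by FACS. The low and high (top ~1%) gates were set on anti-HA fluorescence for expression and streptavidin fluorescence for reagent binding.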

| Sequence | polyreactivity (PSR sort gate) |
| --- | --- |
| QVQLVESGGGLVQAGGSLRLSCAASGINFVYYAKGWYRPAAGKERELVAGITVNGGNTYYADSVKGRFTLSRDNAKNTVYLQMNSLKPEDTAVYYCNADYYWVLGVFDYWGHGTQVTVSS | low polyreactivity |
| QVQLVESVGGLVQAGGSLRLSCAASGSIEAYAMGWYRQAPGKERELVASITWRGGSTYYADSVKGRFTISRDNAKNTVYLQMNSLKPEDTAVYYCAAGFQTRTPLNQFDYWGQGTQVTVSS | low polyreactivity |
| QVQLVESGGGLVQAGGSLRLSCAASGYIFSGYAMGWYRQAPGKERELVAAISSNGGSTYYADSVKGRFTISRDNAKNTVYLQMNSLKPEDTAVYYCNRGLAARVGRGDYWGQGTQVTVSS | low polyreactivity |
| QVQLVESGGGLVQAGGSLRISCAASGFIISFYAMGWYRQAPRKERELVAAIKLSGGSTYYADSVKGRFTISRDNAKNTVYLQMNSLKPEETAVYYCNDVQYFSIPKPVWLFVLRYYYWGHGTQVTVSS | low polyreactivity |
| QVQLVESGGGLVQAGGSLRLSSAASGSTFYLNTMGWYRQAPGKEREFVAAISARGGSTYYADSVKGRFTISRDNAKNTVYLQMNSLKPEDTAVYYCAAKFVRFYWNYDYWGQGTQVTVSS | high polyreactivity |
| QVQLVESGGGLVQAGGTLRLSCAASGSTQWGYDMGWYRQATGKERELVAAISSSGSNTRYADSVKGRFTISRDNEKNTVYLQLNRLKPEDTAVYYCTARTYLRGKTDYGYDSWGQGTHVTVSS | high polyreactivity |
| QVQLVESGGGLVQAGGSLRLSCAASGITFYTYAMGWYRQAPGKERELVAAITNGGNTSYADSVKGRFTISRDNAKNTVYLQMNSLKPEDTAVYYCAAVVTLPIWGNWYYVRYGYWGQGTQVTVSS | low polyreactivity |
| QVQLVESRGGLVQAGGSLRLSCAASGIIFPRYAMGRYRQAPRKERELVAAITRRGGRTYYADSVKGRFTISRDNANNTVYLQMNSLKPEDTAVYYCNADFISTRPPKATDEDYWGQGTQVTVSS | high polyreactivity |
| QVQLVESGGGLVQAGGSLRLSCAPSGYTFGKYAMGWYRHAPVKERELVATIRSGGSTNYADSVKGRFTISRDNAKNTVYLQMNSLKPEDTAVYYCNKRYRYQYGYDFWGQGTQVTVSS | high polyreactivity |
| QVQLVESGGGLVQAGGSLRLSCAASGSTFRANVMGWYRQAPGKEWELVAAITSGGGSTYYADSVKGRFTISRDNAKNTVYLQMNSLKPEDTAVYYCATKRARYSYYYWGQGTQVTVSS | high polyreactivity |
| QVQLVESGGGLVQAGGSLRLSCAASGFIFASYARGWYRQAPGKERELVAAISSSGGSTYADSVKGRFTISRDNAKNTVYLQMNSLKPEDTAVYYCAAQGYGDNRNKYYYWGQGTQVTISS | high polyreactivity |
| QVQLVESGGGLVQAGGSLRLSCAASGLIIYSNAMGWYRQAPRKERELVAAINYSGGRTYYADSVKGRFTISRDNAKNTVYLQMNSLKPEDTAVYYCAARLYGAQRHGGYWGQGTQVTVSS | high polyreactivity |
| QVQLVDSGGGLVQAGGSLRLSCAASGSIFIINAKGWYRQSPGKERELVAAINSGGSTKYADSVKGRFTISRDNAKNTVYLQMNSLKPEDTAVYYCNAGSRPTAGGMDSWGQGTQVTVSS | low polyreactivity |
| QVQLVESGGGLVQAGGSLRLSCAASGGIFWRYAMGWYRQAPGKERELVAAISSRGGSTYYADSVKGRFTISRDNAKNTVYLPMNSLKPEYTAVYYCAAAFLSRVQGYDSWGQGTQVTVSS | high polyreactivity |
| QVQLVESGGGLVQAGGSLRLSCAASRSIFGYNAMGWYRPAPGKEREFVAAIRWSSGSTYYADSVKGRFTISRDNAKNTVYLQMNSLKPEDTAVYYCATRQTYLYLGQGTQVTVSS | high polyreactivity |
| QVQLVESGGGLVQAGGSLRLSCAASGSTFWDNAMGWYRQAPGKERELVAAITAIGGTTYYADSVKGRFTISRDNAKNTVYLQMNSLKPEDTAVYYCAADWTTYGFSYFSIYYYWGQGTQVTVSS | low polyreactivity |
| QVQLEESGGGLVQAGGSLRLSCAASGFTLEYYAMGWYRKAPGKERELVAVITESDGNTYYADSVKGRFTISRDNAKNTVYLQMNSLKPEDTAVYYCAAEYRDGYRFSYDYWGQGTQVTVSS | low polyreactivity |
| QVQLVESGGGLVQAGGSLRLSCAASGITFYYYAMGWYRQAPGKERELVAAISWSGGRTYYADSVKGRFTISRDNAKNTVYLQMNSLKPEDTAVYYCAAGYYLYHFVSLYGGDYWGQGTQVTVSS | high polyreactivity |
| QVQLVESGGGLVQAGGSLRLSCAASGSIFYPYAMGWYRQAPGKERELVAAIRNGGSTYYADSVKGRFTISRDNAKNTVYLHMNSLKPEDTAVYYCAASVRRRHPFEYWGQGTQVTVSS | high polyreactivity |
| QVQLVESGGGLVQAGGSLRLSCAASGRTFVRYAMGWYRQAHGKERELVAAIDSSGGRTYYADSVKGRFTISRDNAKNTVYLQMNSLKPEDTAVYYCNARRLASYRGYSWGQGTQVTVSS | high polyreactivity |
| QVQLVESGGGLVQAGGSLRLSSAASGFTLSRYAMGWYRQAPGKERELVASITSGGSTNYADSVKGRFTISRDNAKNTVYLQMNSLKPEDTAVYYCAARYPYRSYKLSHSYARPYGYWGQGTQVTVSS | high polyreactivity |
| QVQLVESGGGLVQAGGSLRLSCAASGITFVFYAMGWYRQAPGKERELVAAISWSGGITYYADSVKGRFTISRDNAKNTVYLQMNSLKPEDTAVYYCAARISWEKYQAGYDYWGQGTQVTVSS | low polyreactivity |

| Sequence | polyreactivity (PSR sort gate) |
| --- | --- |
| QVQLVESGGGLLQAGGSLRLSCAASGLTFAFYVMGWYRQAPGKERELVAAISASGASTYYADSVKGRFTISRDNAKNTVYLQMNSLKPEDTAVYYCAADYAVYSFTEFNYWGQGTQVTVSS | high polyreactivity |
| HVQLVESGGGLVQAGGSLRLSCAASGSTFFKYGMGWNRQAPGKERELVASITSRTGSTYYADSVKGRFTISRDNAKNTVYLQMKSLKPEDTAVYYCNVRRGGGYRYGARTFIYGHWGEGTQVTVSS | high polyreactivity |
| QVQLVESGGGLVQAGGSLRLSCAASGRIFGPNAMGWYRQAPGKETELVAVISTGGSTNYADSVKGRFTISRDNAKNTVYLQMNSLKPEDTAVYYCAAAYQYERGGLYNRFYYWGQGTQVTVSS | low polyreactivity |
| QVQLVESGGGLVQAGGSLRLTCAASGSIFLYYAMGWYRQAPGKERELVAGINRVGSTNYADSVKGRFTISRDNAKNTVNLQMNSLKPEDTAVYYCNKRATRSRRRGYWGQGTQVTVSS | low polyreactivity |
| QEQLQESGGGLVQAGGSLRLSCAASGSISGSSTMGWYRPAPGKERELVASIAVGANTNYADSAKGRFTISRDNAKNTVYLQMNSLKPEDTAVYYCAVDYYIYYFHYWGQGTQVTVSS | high polyreactivity |
| QVQLVESGGGLVQAGGSLRLSCAASGSTFDWYTMGWYRQAPGKERELVAAISSGGRTYYADSVKGRFTISRDNAKNTVYLQMNSLKPEDTAVYYCAVAWRVGITKYGYWGQGTQVTVSS | high polyreactivity |
| QVQLVESVGGLDQAGGSLRLSGAASGIIFEGNALGWYRQAPGKERELVAAITSRGTRTYYADSVKGRFTISRDHAKNTVYLQMNSLKPEDTAVYYCAKLTSVTGKSGRYGYEYWGQGTQVTVSS | high polyreactivity |
| QVQLVESGGGLVQAGGSLRLSCAASGITFRYYAMGWYRQAPGKERELVAAITRGGRTNYADSVKGRFTISRDNAKNTVYLQMNSLKPEDAAVYYCATGRDSNFGNSYYYWGQGTQVTVSS | high polyreactivity |
| QVQLHESGGGLVQAGGSLRLSCAASGTISYAGPMGWYRQAPGKEREFVAGIGVGSNTNYADSVKGRYTIIRDNAKNTVYLQMNSLKPEDTAVYYCAVGGYAPLGRPYWGQGTQVTVCS | low polyreactivity |
| QVQLVESGGGLVQAGGSLRLSCAASGIIFYWYAMGWYRQSPGKERELVATITSTGGSTNYADSVKGRFTISRDNAKNTVYLQMNSLKPEDTAVYYCNADRYGIYYYSRLPFDYWGQGTQVTVSS | low polyreactivity |
| QVQLVESGGGLVQAGGSLRLSCASSGSIFTRYAMGWYRQAPGKERELVAAISRRGGSTYYADSVKGRFTISRDNAKNTVYIQMNSLKPEDTAVYYCYPYYIASTFDYWGQGTQVTVSS | high polyreactivity |
| QVQLVESGGGLVQARGSLRLSCAASGRTFGLYAMGWYIQAPGKEWELVAAITSGGSTYYADSVKGRFTISRDNAKYTVYLQMNSLTPEDTAVYFCDAEHDYLAQFEYDYWGPGTQVTVSS | low polyreactivity |
| LVQLVQSGGGLVQAGGSLRLSCAASGLTFDYYAKGWYRQAPGKERELVAVISSGGSTYYADSVKGRITISRDNAKNTVYLQMNSLKTEDTAVYYCAAEIYRYRLRDEYDYWGQGTQVTVSS | low polyreactivity |
| QVQLVESGGGLVQAGCSLRLSCAASGRTGFNAMGWYRQAPGKERELVASIRSGGTSTYYADSVKGRFTISRDNAKNTVYLQMNSLKPEDTAVYYCYDYWGHGTQVTVSS | low polyreactivity |
| QVQLVESGGGLVQAGGSLRLSCAASGSIFYYNAMGWYRQEPGKERELVATITSAVSTNYADSVKGRFTISRDNAKNTVYLQMNSLKPQDTAVYYCAADDYQVQYDYWGQGTQVTVSS | low polyreactivity |
| QVQLVESGGGLVQAGGSLRLSCAATGRTFYWNAMGWYRQAPGKERELVAAIDSSGGSTYYADSVKGRFTISRDNAKNTVYLQMNSLKPEDTAVYYCNKDYPTYDYDYWGQGTQVTVSS | low polyreactivity |
| QVQLVDSGGGLVQAGGSLRLSCAASGIIFVENAMGWYRQAPGKEREMVAAISWDGGSTYYADSVKGRFTISRDNAKNTVYLQMNSLKPEDTAVYYCAADLTISYSQEYYYWGQGTQVTVSS | low polyreactivity |
| QVQLVESGGGLVQAGGSLRLSCAASGSTFIWNAMGWYRQAPGKVRELVAAISSGGSTYYADSVKGRFTISRDNAKNTVYLQMNSLKPEDTAVYYCAAEYVYNVSEQRYAVYSTDDYWGQGSQVTVSS | low polyreactivity |
| QVQLVESGGGLVQAGGSLRLSCAATGRIFTYYAMGWYRQAPGKERELVAGISGSGTSTYYADSVKARFTISRDNAKNTVDLQINSLKPEDTAVYYSAADVFRDDVWLDYWGQGTQVTVSS | low polyreactivity |
| QVQLVESGGGLVQAGGSLRLSCAASGSIFAYYAMGWYRQAPGKERELVAAISSGGSTNYADSVKGRFTISRDNAKNPVYLQMNSLKPEDTAVYDCAKRSYYGLTYYSWGQGTQVTVSS | low polyreactivity |
| QVQLVESGGGLVQAGGSLRLSCAASGSIFYTNVRGWYRQAPGKAREFVAAITGGGGSTYYADSVKGRFTISRDNAKNTVYLQMNSLKPEDTAVYYCATKAKPRSGYNYWGQGTQVTVSS | low polyreactivity |
